Data on 1 substance can be found in doi:10.1101/2023.04.06.534471.

The target in the assay is Dendritic cell-specific intercellular adhesion molecule 3-grabbing nonintegrin (DC-SIGN), on the Biacore chip (UniProt Q9NNX6). Briefly: SPR. (SPR reads the build-up and loss of mass on a sensor chip optically.)
Sequence of UniProt Q9NNX6 (Q9NNX6 whole entry): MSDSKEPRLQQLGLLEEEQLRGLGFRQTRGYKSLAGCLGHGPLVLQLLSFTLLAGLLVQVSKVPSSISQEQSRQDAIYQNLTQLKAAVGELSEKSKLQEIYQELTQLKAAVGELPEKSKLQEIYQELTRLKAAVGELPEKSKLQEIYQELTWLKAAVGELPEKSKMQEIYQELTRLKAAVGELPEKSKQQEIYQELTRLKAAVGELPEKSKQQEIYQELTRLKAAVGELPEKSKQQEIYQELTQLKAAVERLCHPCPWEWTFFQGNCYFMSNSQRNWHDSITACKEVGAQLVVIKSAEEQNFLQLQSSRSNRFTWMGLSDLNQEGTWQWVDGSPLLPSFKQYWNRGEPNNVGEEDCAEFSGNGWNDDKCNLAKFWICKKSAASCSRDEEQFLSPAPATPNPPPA

The Kd is the free concentration of one partner at which half of the binding sites on the other are occupied at equilibrium, for simple one-to-one binding. “Surface layer protein B (SlpB) from Levilactobacillus brevis JCM 1059 (natural protein)” yielded a Kd of 30.3 nM.
